According to patent publication EP2974737A1 (Ablynx N.V., dated 2016):

Columns and labels:
Test in all cases: SPR, interference factor immobilized; % of Fig. 9 reference
[1] = biological target: T1, purified interference factor(s) from Donor B (human)
T1 construct: the text names the donors 8, 19 and 30; also called interference in serum from Donor B

[2] = biological target: T2, purified interference factor(s) from Donor A (human)
T2 construct: also called interference in serum from Donor A

[3] = biological target: T3, purified interference factor(s) from Donor C (human)
T3 construct: the text names the donors 8, 19 and 30; also called interference in serum from Donor C

Binder	interference binding, % of Reference Sequence [1] [%]	interference binding, % of Reference Sequence [2] [%]	interference binding, % of Reference Sequence [3] [%]
SEQ ID NO: 38 (VHH) EVQLVESGGGLVQPGGSLRLSCAASGFTFSSYAMSWVRQAPGKGLEWVSGIKSSGDSTRYAGSVKGRFTISRDNAKNTLYLQMNSLRPEDTAVYYCAKSRVSRTGLYTYDNRGQGTLVTVSSGGGGSGGGGSGGGGSGGGGSEVQLVESGGGLVQPGGSLRLSCAASGRTFNNYAMGWFRQAPGKEREFVAAITRSGVRSGVSAIYGDSVKDRFTISRDNAKNTLYLQMNSLRPEDTAVYYCAASAIGSGALRRFEYDYSGQGTLVTVSSA	25	9	7
SEQ ID NO: 47 (VHH) VHH: EVQLVESGGGLVQPGGSLRLSCAASGSVFKINVMAWYRQAPGKGRELVAGIISGGSTSYADSVKGRFTISRDNAKNTLYLQMNSLRPEDTAVYYCAFITTESDYDLGRRYWGQGTLVTVSS		1	
SEQ ID NO: 65 (VHH) VHH: EVQLVESGGGLVQAGGSLRLSCAASRSIGRLDRMGWYRHRPGEPRELVATITGGSSINYGDSVKGRFTISIDNSKNTVYLQMNSLRPEDTAVYYCNFNKYVTSRDTWGQGTLVTVSS	121	73	64
SEQ ID NO: 77 (VHH) VHH: EVQLVESGGGLVQPGGSLRLSCAASRSIGRLDRMGWYRHRPGEPRELVATITGGSSINYGDSVKGRFTISIDNSKNTVYLQMNSLRPEDTAVYYCNFNKYVTSRDTWGQGTLVTVSS	12	2	13
SEQ ID NO: 80 (VHH) VHH: EVQLVESGGGLVQPGGSLRLSCAASRSIGRLDRMGWYRHRPGEPRELVATITGGSSINYGDSVKGRFTISIDNSKNTVYLQMNSLRPEDTAVYYCNFNKYVTSRDTWGQGTLVQVGG	5	65	58
SEQ ID NO: 75 (VHH) VHH: EVQLVESGGGLVQPGGSLRLSCAASRSIGRLDRMGWYRHRPGEPRELVATITGGSSINYGDSVKGRFTISIDNSKNTVYLQMNSLRPEDTAVYYCNFNKYVTSRDTWGQGTLVTVSS	11	1	16
SEQ ID NO: 67 (VHH) VHH: EVQLVESGGGLVQPGGSLRLSCAASRSIGRLDRMGWYRHRPGEPRELVATITGGSSINYGDSVKGRFTISIDNSKNTVYLQMNSLKPEDTAVYYCNFNKYVTSRDTWGQGTLVTVSS	117	102	96
SEQ ID NO: 66 (VHH) VHH: EVQLVESGGGSVQPGGSLRLSCAASRSIGRLDRMGWYRHRPGEPRELVATITGGSSINYGDSVKGRFTISIDNSKNTVYLQMNSLRPEDTAVYYCNFNKYVTSRDTWGQGTLVTVSS	29	81	84
SEQ ID NO: 79 (VHH) VHH: EVQLVESGGGLVQPGGSLRLSCAASRSIGRLDRMGWYRHRPGEPRELVATITGGSSINYGDSVKGRFTISIDNSKNTVYLQMNSLRPEDTAVYYCNFNKYVTSRDTWGQGTLVTVSS	17	1	13
SEQ ID NO: 76 (VHH) VHH: EVQLVESGGGLVQPGGSLRLSCAASRSIGRLDRMGWYRHRPGEPRELVATITGGSSINYGDSVKGRFTISIDNSKNTVYLQMNSLRPEDTAVYYCNFNKYVTSRDTWGQGTLVTVSS	17	2	20
SEQ ID NO: 71 (VHH) VHH: EVQLVESGGGLVQPGGSLRLSCAASRSIGRLDRMGWYRHRPGEPRELVATITGGSSINYGDSVKGRFTISIDNSKNTVYLQMNSLRPEDTAVYYCNFNKYVTSRDTWGQGTLVTVSG	105	88	87
SEQ ID NO: 72 (VHH) VHH: EVQLVESGGGLVQPGGSLRLSCAASRSIGRLDRMGWYRHRPGEPRELVATITGGSSINYGDSVKGRFTISIDNSKNTVYLQMNSLRPEDTAVYYCNFNKYVTSRDTWGQGTLVTVGG	47	70	56
SEQ ID NO: 68 (VHH) VHH: EVQLVESGGGLVQAGGSLRLSCAASRSIGRLDRMGWYRHRPGEPRELVATITGGSSINYGDSVKGRFTISIDNSKNTVYLQMNSLRPEDTAVYYCNFNKYVTSRDTWGQGTQVTVSS	115	38	49
SEQ ID NO: 82 (VHH) VHH: EVQLVESGGGLVQPGGSLRLSCAASRSIGRLDRMGWYRHRPGEPRELVATITGGSSINYGDSVKGRFTISIDNSKNTVYLQMNSLRAEDTAVYYCNFNKYVTSRDTWGQGTLVTVSS	80	96	100
SEQ ID NO: 74 (VHH) VHH: EVQLVESGGGLVQPGGSLRLSCAASRSIGRLDRMGWYRHRPGEPRELVATITGGSSINYGDSVKGRFTISIDNSKNTVYLQMNSLRPEDTAVYYCNFNKYVTSRDTWGQGTLVTVSS	41	4	33
SEQ ID NO: 73 (VHH) VHH: EVQLVESGGGLVQPGGSLRLSCAASRSIGRLDRMGWYRHRPGEPRELVATITGGSSINYGDSVKGRFTISIDNSKNTVYLQMNSLRPEDTAVYYCNFNKYVTSRDTWGQGTLVTVGG	8	6	9
SEQ ID NO: 78 (VHH) VHH: EVQLVESGGGLVRPGGSLRLSCAASRSIGRLDRMGWYRHRPGEPRELVATITGGSSINYGDSVKGRFTISIDNSKNTVYLQMNSLRPEDTAVYYCNFNKYVTSRDTWGQGTLVTVSS	96	96	100
SEQ ID NO: 69 (VHH) VHH: EVQLVESGGGLVQPGGSLRLSCAASRSIGRLDRMGWYRHRPGEPRELVATITGGSSINYGDSVKGRFTISIDNSKNTVYLQMNSLRPEDTAVYYCNFNKYVTSRDTWGQGTQVTVSS	120	80	84
SEQ ID NO: 81 (VHH) VHH: EVQLVESGGGVVQPGGSLRLSCAASRSIGRLDRMGWYRHRPGEPRELVATITGGSSINYGDSVKGRFTISIDNSKNTVYLQMNSLRPEDTAVYYCNFNKYVTSRDTWGQGTLVTVSS	50	94	89
SEQ ID NO: 70 (VHH) VHH: EVQLVESGGGLVQPGGSLRLSCAASRSIGRLDRMGWYRHRPGEPRELVATITGGSSINYGDSVKGRFTISIDNSKNTVYLQMNSLRPEDTAVYYCNFNKYVTSRDTWGQGTLVQVSS	105	90	98
SEQ ID NO: 43 (VHH) DVQLVESGGGLVQPGGSLRLSCAASGFILDYYAIGWFRQAPGKEREGVLCIDASDDITYYADSVKGRFTISRDNSKNTVYLQMNSLRPEDTAVYYCATPIGLSSSCLLEYDYDYWGQGTLVTVSSGGGGSGGGSEVQLLESGGGLVQPGGSLRLSCAASGFTFRSFGMSWVRQAPGKGPEWVSSISGSGSDTLYADSVKGRFTISRDNSKNTLYLQMNSLRPEDTAVYYCTIGGSLSRSSQGTLVTVSSA	20	3	
SEQ ID NO: 42 (VHH) EVQLVESGGGLVQPGGSLRLSCAASGRTFSYNPMGWFRQAPGKGRELVAAISRTGGSTYYPDSVEGRFTISRDNAKRMVYLQMNSLRAEDTAVYYCAAAGVRAEDGRVRTLPSEYTFWGQGTQVTVSSAAAEVQLVESGGGLVQPGGSLRLSCAASGRTFSYNPMGWFRQAPGKGRELVAAISRTGGSTYYPDSVEGRFTISRDNAKRMVYLQMNSLRAEDTAVYYCAAAGVRAEDGRVRTLPSEYTFWGQGTQVTVSSA	4	1	
